# T1: 4H1328-bN
# T1 chain: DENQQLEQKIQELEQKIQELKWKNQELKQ
# T2: 4H1369-bN
# T2 chain: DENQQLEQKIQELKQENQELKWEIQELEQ
# T3: 4H1446-bN
# T3 chain: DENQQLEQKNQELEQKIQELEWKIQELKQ
# T4: 4H1845-bN
# T4 chain: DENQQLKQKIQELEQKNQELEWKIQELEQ
# T5: 4H2576-bN
# T5 chain: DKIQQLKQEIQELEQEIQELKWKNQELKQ
# T6: 4H2610-bN
# T6 chain: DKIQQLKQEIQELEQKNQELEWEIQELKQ
# T7: 4H264-bH
# T7 chain: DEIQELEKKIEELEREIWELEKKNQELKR
# T8: 4H2667-bN
# T8 chain: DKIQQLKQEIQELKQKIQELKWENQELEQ
# T9: 4H2697-bN
# T9 chain: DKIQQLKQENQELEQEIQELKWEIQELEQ
# T10: 4H3189-bN
# T10 chain: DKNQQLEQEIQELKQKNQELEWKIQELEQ
# T11: 4H331-bN
# T11 chain: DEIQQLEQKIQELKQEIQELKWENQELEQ
# T12: 4H3606-bN
# T12 chain: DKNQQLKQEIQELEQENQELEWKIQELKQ
# T13: 4H370-bN
# T13 chain: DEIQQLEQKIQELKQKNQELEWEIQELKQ
# T14: 4H3782-bN
# T14 chain: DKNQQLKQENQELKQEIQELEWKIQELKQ
# T15: 4H3843-bN
# T15 chain: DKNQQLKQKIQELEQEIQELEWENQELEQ
# T16: 4H4001-bN
# T16 chain: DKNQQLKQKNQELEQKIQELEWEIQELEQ
# T17: 4H462-bN
# T17 chain: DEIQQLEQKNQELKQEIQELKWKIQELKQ
# T18: 4H568-bN
# T18 chain: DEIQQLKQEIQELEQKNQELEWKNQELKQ
# T19: 4H607-bN
# T19 chain: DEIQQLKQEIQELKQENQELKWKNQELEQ
# T20: 4H687-bN
# T20 chain: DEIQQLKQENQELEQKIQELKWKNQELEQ
# T21: 4H72-bN
# T21 chain: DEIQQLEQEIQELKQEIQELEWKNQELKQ
# T22: 4H797-bN
# T22 chain: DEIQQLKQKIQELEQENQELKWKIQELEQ
# T23: 4H883-bN
# T23 chain: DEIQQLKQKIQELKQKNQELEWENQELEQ
# T24: 4H918-bN
# T24 chain: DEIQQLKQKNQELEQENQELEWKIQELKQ
# T25: 4H953-bN
# T25 chain: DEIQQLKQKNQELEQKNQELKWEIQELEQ
# T26: 4H967-bN
# T26 chain: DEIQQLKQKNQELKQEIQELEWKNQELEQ
# Columns and labels:
# Experiment in all cases: two-hybrid library CCNG1;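 also: natural log of median RNA to DNA barcode read ratio; higher means stronger binding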
# 4H1328-bN = biological target: T1, 4H1328-bN
# 4H1369-bN = biological target: T2, 4H1369-bN
# 4H1446-bN = biological target: T3, 4H1446-bN
# 4H1845-bN = biological target: T4, 4H1845-bN
# 4H2576-bN = biological target: T5, 4H2576-bN
# 4H2610-bN = biological target: T6, 4H2610-bN
# 4H264-bH = biological target: T7, 4H264-bH
# 4H2667-bN = biological target: T8, 4H2667-bN
# 4H2697-bN = biological target: T9, 4H2697-bN
# 4H3189-bN = biological target: T10, 4H3189-bN
# 4H331-bN = biological target: T11, 4H331-bN
# 4H3606-bN = biological target: T12, 4H3606-bN
# 4H370-bN = biological target: T13, 4H370-bN
# 4H3782-bN = biological target: T14, 4H3782-bN
# 4H3843-bN = biological target: T15, 4H3843-bN
# 4H4001-bN = biological target: T16, 4H4001-bN
# 4H462-bN = biological target: T17, 4H462-bN
# 4H568-bN = biological target: T18, 4H568-bN
# 4H607-bN = biological target: T19, 4H607-bN
# 4H687-bN = biological target: T20, 4H687-bN
# 4H72-bN = biological target: T21, 4H72-bN
# 4H797-bN = biological target: T22, 4H797-bN
# 4H883-bN = biological target: T23, 4H883-bN
# 4H918-bN = biological target: T24, 4H918-bN
# 4H953-bN = biological target: T25, 4H953-bN
# 4H967-bN = biological target: T26, 4H967-bN
binder,measurement,setting,value
DENQQLEQKIQELEQKIQELKWKNQELKQ [4H1328-bN],interaction score,4H1328-bN,0.393
same,interaction score,4H1369-bN,-0.223
same,interaction score,4H1446-bN,0.527
same,interaction score,4H1845-bN,-1.61
same,interaction score,4H2576-bN,1.57
same,interaction score,4H2610-bN,0.84
same,interaction score,4H264-bH,1.68
same,interaction score,4H2667-bN,1.46
same,interaction score,4H2697-bN,-0.465
same,interaction score,4H3189-bN,-0.232
same,interaction score,4H331-bN,1.8
same,interaction score,4H3606-bN,-0.42
same,interaction score,4H370-bN,-0.748
same,interaction score,4H3782-bN,-1.38
same,interaction score,4H3843-bN,1.16
same,interaction score,4H4001-bN,1.19
same,interaction score,4H462-bN,-1.6
same,interaction score,4H568-bN,-0.31
same,interaction score,4H607-bN,-0.376
same,interaction score,4H687-bN,0.403
same,interaction score,4H72-bN,0.764
same,interaction score,4H797-bN,-0.686
same,interaction score,4H883-bN,0.625
same,interaction score,4H918-bN,-0.287
same,interaction score,4H953-bN,-0.513
same,interaction score,4H967-bN,0.0544
